The Kd is the free concentration of one partner at which half of the binding sites on the other are occupied at equilibrium, for simple one-to-one binding. High values mean a looser complex, low ones a tighter complex.

For test [1], the target named is T1, VEGF-A165 (Homo sapiens, UniProt P15692).
T1 construct: All growth factors (GFs) and chemokines were purchased in their mature forms; purchased PeproTech; host or cells: Escherichia coli
T1 sequence (P15692 27-191 isoform P15692-4 limits assumed): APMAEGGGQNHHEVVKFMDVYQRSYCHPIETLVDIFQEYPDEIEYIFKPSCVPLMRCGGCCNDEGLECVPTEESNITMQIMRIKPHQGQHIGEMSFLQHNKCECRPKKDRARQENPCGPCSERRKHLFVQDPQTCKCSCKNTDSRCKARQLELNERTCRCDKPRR
Briefly: Surface plasmon resonance, laminin against GF. To be noted: SPR; laminin protein immobilized on chip, GF flowed; Langmuir binding kinetics. Here is the method: (§1) SPR analysis was performed as described previously^2. In brief, measurements were made with a Biacore 3000 SPR system (GE Healthcare). Laminin-521 or laminin α32928-3150 was immobilized via amine coupling on a C1 chip (GE Healthcare) for ˜2000 or ˜1000 resonance units (RU), respectively, according to the manufacturer's instructions. VEGF-A165, PDGF-BB, or PlGF-2 was flowed at increasing concentrations in the running buffer at 20 μL/min. The sensor chip was regenerated with 50 mM NaOH for every cycle. Specific bindings of GFs to laminin were calculated by comparison to a non-functionalized channel used as a reference. Experimental results were fitted with Langmuir binding kinetics using BIAevaluation software (GE Healthcare).
For orientation: Surface plasmon resonance follows binding to a sensor surface in real time, without labels.

The target in test [2] is T2, PDGF-BB (Homo sapiens, UniProt P01127).
T2 construct: All growth factors (GFs) and chemokines were purchased in their mature forms; purchased PeproTech; host or cells: Escherichia coli
T2 sequence (P01127 82-190 limits assumed): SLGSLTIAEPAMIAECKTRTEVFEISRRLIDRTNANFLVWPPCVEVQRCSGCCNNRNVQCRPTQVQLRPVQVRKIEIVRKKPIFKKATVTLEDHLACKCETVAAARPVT
Briefly: Surface plasmon resonance, laminin against GF. As to conditions: SPR; laminin protein immobilized on chip, GF flowed; Langmuir binding kinetics. Here is the method: as §1

The target of test [3] is T3, PlGF-1 (Homo sapiens, UniProt P49763).
T3 sequence (P49763 19-149 isoform P49763-2 limits assumed): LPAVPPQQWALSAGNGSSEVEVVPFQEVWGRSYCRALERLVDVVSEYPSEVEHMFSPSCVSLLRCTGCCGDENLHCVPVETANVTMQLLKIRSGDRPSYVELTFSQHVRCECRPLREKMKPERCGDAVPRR
Briefly: GF binding to recombinant laminin LG domain protein and synthesized laminin HBD peptides (ELISA). The arrangement: All growth factors (GFs) and chemokines were purchased in their mature forms; purchased PeproTech; host or cells: Escherichia coli. To be noted: plate coated with LG domain protein or peptide, 1 μg/mL GF, vs BSA-coated wells. The procedure: (§2) ELISA tests were performed as described above. In brief, ELISA plates were coated with 1 μg/mL of laminin alpha 3 LG domain recombinant protein, laminin alpha 4 LG domain recombinant protein (R&D systems), laminin alpha 5 LG domain recombinant protein (LD BioPharma), or laminin peptide (sequences are described in Table 1, chemically synthesized by Genscript) in PBS for 2 hrs at 37° C. 1 μg/mL of BSA served as non-binding protein control. After blocking with 2% BSA PBS-0.05% Tween 20 (PBS-T) solution, 1 μg/mL of the recombinant human proteins (VEGF-A121, VEGF-A165, PlGF-1, PlGF-2, PDGF-BB or FGF-2) or 10 μg/mL of biotinylated heparin (Sigma-Aldrich) were added. Bound GF was detected with biotinylated antibodies for human VEGF, PlGF, PDGF-BB, or FGF-2 (R&D Systems). The antibodies were detected by streptavidin-HRP (R&D Systems).
(In an ELISA, binding on a coated surface is turned into a signal by an enzyme label.)

For test [4], the target named is T4, VEGF-A121 (Homo sapiens, UniProt P15692).
T4 sequence (P15692 27-147 isoform P15692-9 limits assumed): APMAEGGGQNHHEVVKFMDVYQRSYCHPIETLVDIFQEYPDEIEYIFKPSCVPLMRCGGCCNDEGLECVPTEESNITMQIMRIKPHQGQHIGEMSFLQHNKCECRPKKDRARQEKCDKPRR
The description is as above. Also noted: All growth factors (GFs) and chemokines were purchased in their mature forms; purchased PeproTech; host or cells: Escherichia coli. To be noted: plate coated with LG domain protein or peptide, 1 μg/mL GF, vs BSA-coated wells. Here is the method:
as §2

In test [5] the target is T5, PlGF-2 (Homo sapiens, UniProt P49763).
T5 sequence (P49763 19-170 isoform P49763-3 limits assumed): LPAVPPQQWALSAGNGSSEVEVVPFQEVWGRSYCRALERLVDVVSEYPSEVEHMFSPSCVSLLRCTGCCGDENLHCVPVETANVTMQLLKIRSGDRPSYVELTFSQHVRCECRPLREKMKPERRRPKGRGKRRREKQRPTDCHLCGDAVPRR
Described as above. The arrangement: All growth factors (GFs) and chemokines were purchased in their mature forms; purchased PeproTech; host or cells: Escherichia coli. To be noted: plate coated with LG domain protein or peptide, 1 μg/mL GF, vs BSA-coated wells. Here is the method: as §2

For test [6], the target named is FGF-2 (Homo sapiens, UniProt P09038). The description is as above. Also noted: All growth factors (GFs) and chemokines were purchased in their mature forms; purchased PeproTech; host or cells: Escherichia coli. To be noted: plate coated with LG domain protein or peptide, 1 μg/mL GF, vs BSA-coated wells. The procedure: as §2
Chain of FGF-2 (P09038 143-288): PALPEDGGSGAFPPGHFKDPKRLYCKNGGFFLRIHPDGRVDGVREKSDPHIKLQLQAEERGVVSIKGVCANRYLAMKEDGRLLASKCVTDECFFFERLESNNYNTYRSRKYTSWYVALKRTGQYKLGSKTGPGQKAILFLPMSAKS
The target in test [7] is T1, VEGF-A165. The test is described as above. As to conditions: plate coated with LG domain protein or peptide, 1 μg/mL GF, vs BSA-coated wells. Here is the method: as §2
Test [8] concerns the target T2, PDGF-BB. The test is described as above. To be noted: plate coated with LG domain protein or peptide, 1 μg/mL GF, vs BSA-coated wells. The procedure:
as §2

B1: α32928-3150: recombinant human laminin alpha 3 LG domain Ser2928-Cys3150 (linker domain and LG4 domain), 6 His (protein)
chain: HHHHHHSLNKPPFLMLLKGSTRFNKTKTFRINQLLQDTPVASPRSVKVWQDACSPLPKTQANHGALQFGDIPTSHLLFKLPQELLKPRSQFAVDMQTTSSRGLVFHTGTKNSFMALYLSKGRLVFALGTDGKKLRIKSKEKCNDGKWHTVVFGHDGEKGRLVVDGLRAREGSLPGNSTISIRAPVYLGSPPSGKPKSLPTNSFVGCLKNFQLDSKPLYTPSSSFGVSSC
B1: the Kd is 1.2 nM in test [1] and 10.2 nM in test [2]. Also, the “binding to PlGF-1” value in test [3] is recorded as “did not show any binding”. The “binding to VEGF-A121” value in test [4] is “did not show any binding”. Further, in test [5], the “binding to PlGF-2” value is “bound”. Besides, in test [6], the “binding to FGF-2” value is listed as “bound”. In test [7], the “binding to VEGF-A165” value is given as “bound”. Moreover, the “binding to PDGF-BB” value in test [8] is on record as “bound”.

B2: α4826-1816: laminin alpha 4 LG domain recombinant protein (R&D systems) (protein)
chain: QVSMMFDGQSAVEVHSRTSMDDLKAFTSLSLYMKPPVKRPELTETADQFILYLGSKNAKKEYMGLAIKNDNLVYVYNLGTKDVEIPLDSKPVSSWPAYFSIVKIERVGKHGKVFLTVPSLSSTAEEKFIKKGEFSGDDSLLDLDPEDTVFYVGGVPSNFKLPTSLNLPGFVGCLELATLNNDVISLYNFKHIYNMDPSTSVPCARDKLAFTQSRAASYFFDGSGYAVVRDITRRGKFGQVTRFDIEVRTPADNGLILLMVNGSMFFRLEMRNGYLHVFYDFGFSGGPVHLEDTLKKAQINDAKYHEISIIYHNDKKMILVVDRRHVKSMDNEKMKIPFTDIYIGGAPPEILQSRALRAHLPLDINFRGCMKGFQFQKKDFNLLEQTETLGVGYGCPEDSLISRRAYFNGQSFIASIQKISFFDGFEGGFNFRTLQPNGLLFYYASGSDVFSISLDNGTVIMDVKGIKVQSVDKQYNDGLSHFVISSVSPTRYELIVDKSRVGSKNPTKGKIEQTQASEKKFYFGGSPISAQYANFTGCISNAYFTRVDRDVEVEDFQRYTEKVHTSLYECPIESSPLFLLHKKGKNLSKPKASQNKKGGKSKDAPSWDPVALKLPERNTPRNSHCHLSNSPRAIEHAYQYGGTANSRQEFEHLKGDFGAKSQFSIRLRTRSSHGMIFYVSDQEENDFMTLFLAHGRLVYMFNVGHKKLKIRSQEKYNDGLWHDVIFIRERSSGRLVIDGLRVLEESLPPTEATWKIKGPIYLGGVAPGKAVKNVQINSIYSFSGCLSNLQLNGASITSASQTFSVTPCFEGPMETGTYFSTEGGYVVLDESFNIGLKFEIAFEVRPRSSSGTLVHGHSVNGEYLNVHMKNGQVIVKVNNGIRDFSTSVTPKQSLCDGRWHRITVIRDSNVVQLDVDSEVNHVVGPLNPKPIDHREPVFVGGVPESLLTPRLAPSKPFTGCIRHFVIDGHPVSFSKAALVSGAVSINSCPAA
With B2, in test [3], the “binding to PlGF-1” value is “did not show any binding”. Besides, the “binding to VEGF-A121” value in test [4] is recorded as “did not show any binding”. For the same molecule, the “binding to PlGF-2” value in test [5] is recorded as “bound”. Besides, the “binding to FGF-2” value in test [6] is “bound”. Besides, the “binding to VEGF-A165” value in test [7] is listed as “bound”. Besides, in test [8], the “binding to PDGF-BB” value is given as “bound”.

B3: α53026-3482: laminin alpha 5 LG domain recombinant protein (LD BioPharma) (protein)
chain: AIQVFLLGGSRKRVLVRVERATVYSVEQDNDLELADAYYLGGVPPDQLPPSLRRLFPTGGSVRGCVKGIKALGKYVDLKRLNTTGVSAGCTADLLVGRAMTFHGHGFLRLALSNVAPLTGNVYSGFGFHSAQDSALLYYRASPDGLCQVSLQQGRVSLQLLRTEVKTQAGFADGAPHYVAFYSNATGVWLYVDDQLQQMKPHRGPPPELQPQPEGPPRLLLGGLPESGTIYNFSGCISNVFVQRLLGPQRVFDLQQNLGSVNVSTGCAPALQAQTPGLGPRGLQATARKASRRSRQPARHPACMLPPHLRTTRDSYQFGGSLSSHLEFVGILARHRNWPSLSMHVLPRSSRGLLLFTARLRPGSPSLALFLSNGHFVAQMEGLGTRLRAQSRQRSRPGRWHKVSVRWEKNRILLVTDGARAWSQEGPHRQHQGAEHPQPHTLFVGGLPASSHSSKLP
As for B3, in test [3], the “binding to PlGF-1” value is listed as “did not show any binding”. Further, the “binding to VEGF-A121” value in test [4] is reported as “did not show any binding”. The “binding to PlGF-2” value in test [5] was “bound”. Also, the “binding to FGF-2” value in test [6] is “bound”. For the same molecule, the “binding to VEGF-A165” value in test [7] was “bound”. Further, in test [8], the “binding to PDGF-BB” value is “bound”.

(Values after patent US11732029B2, “Methods and compositions for the treatment of wounds” (The University of Chicago, priority 2017, dated 2023).)
